Assays:
[1] = target: T1, recombinant soluble human IL-6R (human, UniProt P08887 20-365); assay: standard gp130 ELISA (competition); column 'Potency'
T1 construct: also called sIL-6R; shIL-6R
T1 sequence: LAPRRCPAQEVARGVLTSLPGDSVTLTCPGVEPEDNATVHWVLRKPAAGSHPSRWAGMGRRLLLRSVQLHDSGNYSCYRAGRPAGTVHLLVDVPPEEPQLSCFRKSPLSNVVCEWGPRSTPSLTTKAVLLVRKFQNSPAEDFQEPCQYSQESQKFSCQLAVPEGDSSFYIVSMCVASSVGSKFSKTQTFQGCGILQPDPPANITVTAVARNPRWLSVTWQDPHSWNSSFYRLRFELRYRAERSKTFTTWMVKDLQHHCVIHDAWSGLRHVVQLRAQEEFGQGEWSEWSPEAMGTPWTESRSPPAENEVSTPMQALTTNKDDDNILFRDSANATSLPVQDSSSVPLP

[2] = target: T1, recombinant soluble human IL-6R; assay: standard gp130 ELISA (competition); 10 ng/mL IL-6R, 50 ng/mL IL-6; column 'Potency'
Method: Mutant 5G9 sequences were produced and tested for their potency in the standard gp130 ELISA. The standard gp130 ELISA has a final assay concentration of 10 ng/mL IL-6R and 50 ng/mL IL-6.

[3] = target: T2, membrane-bound human IL-6R on TF-1 cells (human, UniProt P08887 20-468); assay: cell-based or functional assay
T2 sequence: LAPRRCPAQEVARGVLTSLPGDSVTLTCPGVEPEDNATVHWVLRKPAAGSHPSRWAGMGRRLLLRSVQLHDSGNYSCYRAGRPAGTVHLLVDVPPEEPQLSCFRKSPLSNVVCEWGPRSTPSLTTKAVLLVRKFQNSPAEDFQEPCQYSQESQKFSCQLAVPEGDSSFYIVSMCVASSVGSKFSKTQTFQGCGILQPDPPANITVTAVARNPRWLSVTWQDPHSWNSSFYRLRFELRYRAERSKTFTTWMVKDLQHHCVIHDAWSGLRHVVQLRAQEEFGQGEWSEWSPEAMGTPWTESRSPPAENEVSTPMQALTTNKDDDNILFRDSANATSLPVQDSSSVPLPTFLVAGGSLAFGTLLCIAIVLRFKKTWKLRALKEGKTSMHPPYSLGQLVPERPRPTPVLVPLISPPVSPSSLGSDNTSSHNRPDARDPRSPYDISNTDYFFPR

[4] = target: T3, cynomolgus monkey soluble IL-6R (from cynomolgus monkey serum) (cynomolgus monkey, UniProt P08887 20-365 (human entry)); assay: anti-cynomolgus IL-6R gp130 ELISA (competition): 10x diluted cynomolgus serum, 50 ng/mL human IL-6, coated human gp130
T3 construct: Natural soluble IL-6R present in diluted normal cynomolgus monkey serum; also called cyno IL6R; cynomolgous sIL-6R
T3 chain: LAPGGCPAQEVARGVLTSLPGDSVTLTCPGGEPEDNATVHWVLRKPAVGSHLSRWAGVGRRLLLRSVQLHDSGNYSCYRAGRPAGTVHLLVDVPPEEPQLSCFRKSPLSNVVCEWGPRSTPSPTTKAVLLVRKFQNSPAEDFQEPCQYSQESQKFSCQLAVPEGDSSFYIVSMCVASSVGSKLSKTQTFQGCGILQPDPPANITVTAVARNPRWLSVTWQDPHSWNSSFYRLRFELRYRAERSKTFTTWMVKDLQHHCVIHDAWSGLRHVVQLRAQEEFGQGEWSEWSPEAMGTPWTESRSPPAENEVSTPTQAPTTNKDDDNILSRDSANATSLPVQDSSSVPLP
Method: (§1) The standard anti-cynomolgus monkey IL-6R gp130 ELISA assay detailed under ‘Potency, neutralisation and inhibition’ above was performed to assay the ICVDs in parallel for their ability to neutralise sIL6R in cynomolgous monkey serum and recombinant purified human sIL6R. Briefly, Maxisorp 96-well plates were coated overnight with 50 μl/well 1 μg/ml gp130 then blocked. ICVDs were serially diluted and mixed 1:1 with 200 ng/ml recombinant human IL-6, then 1:1 with either 20 ng/ml recombinant human sIL-6R or a 5-fold dilution of cynomolgus monkey serum and incubated for 1 hour to allow binding before adding to the gp130-coated plates. Bound cynomolgus monkey IL-6R was detected with 50 μl/well either 0.25 μg/ml (for human IL-6R) or 0.5 μg/ml (for monkey serum) BAF227 and then 50 μl/well 1/1000 Extravidin-HRP and the level of neutralisation by the ICVD of IL-6R binding to IL-6/gp130 was determined

[5] = target: T2, membrane-bound human IL-6R on TF-1 cells; assay: cell-based or functional assay; remark: listed apart in the source
[6] = target: T1, recombinant soluble human IL-6R; assay: gp130 ELISA (competition), parallel human arm: 10 ng/mL human IL-6R, 50 ng/mL human IL-6
Method: as §1

[7] = target: T1, recombinant soluble human IL-6R; assay: gp130 ELISA (competition): inhibition of human sIL-6R/IL-6 complex binding to coated gp130; 20 ng/mL IL6R, 100 ng/mL IL6
Method: Briefly, Maxisorp 96-well plates were coated overnight with 50 μl/well 0.5 μg/ml gp130 then blocked. ICVDs were serially diluted and mixed 1:1 with 100 ng/ml recombinant human IL-6 then 1:1 with 40 ng/ml recombinant human sIL-6R, and incubated for 1 hour to allow binding before adding to the gp130-coated plates. Bound IL-6R was detected with 50 μl/well 0.250 μg/ml BAF227 and then 50 μl/well 1/1000 diluted Extravidin-HRP and the level of neutralisation by the ICVD of IL-6R binding to IL-6/gp130 was determined.
Dose response curves were obtained (dose response curves of particular ICVDs illustrated in FIG. 1). […] This was confirmed with curve-fitting software (Graphpad Prism), which fitted 4 parameter curves to the data and calculated the IC50s (Table 4.1, below).

[8] = target: T3, cynomolgus monkey soluble IL-6R (from …); assay: ratio of gp130 ELISA IC50s on human and cynomolgus sIL-6R
Method: as §1

[9] = target: T1, recombinant soluble human IL-6R; assay: cell-based or functional assay
[10] = target: T1, recombinant soluble human IL-6R; assay: standard gp130 ELISA (competition), Experiment 2; 10 ng/mL IL-6R, 50 ng/mL IL-6
Method: The inhibitory potency and efficacy (maximal inhibition) of the E. coli-produced 5G9 derivatives were confirmed in vitro in the gp130 ELISA, TF-1 cell and M1 cell functional assays measuring responses mediated via human IL-6R. The gp130 assays follow the standard protocol with a final assay concentration of 10 ng/mL IL-6R and 50 ng/mL IL-6.

B1: ID-3V (VHH)
VHH: EVQLVESGGGLVQAGGSTRLTCLASGSISSINVIGWYRQAPGKQRELVAMIGRGEGANYGDFAKGRFTISRDNSKNTVYLQMNSLKPEDTAVYYCYADYEDHDSPFNGSWGQGTQVTVSS
notes: Mutant of 7F6; also called 7F6 + R102H; not shown: C-terminal Flag- and His-tags of E. coli constructs
[1]
  IC50: 0.16 nM

B2: ID-6V (VHH)
VHH: EVQLVESGGGLVQAGGSTRLTCLASGSISSINVIGWYRQAPGKQRELVAMIGRGEGANYGDFAKGRFTISRDNSKNTVYLQMNSLKPEDTAVYYCYADYEDRDSPHNGSWGQGTQVTVSS
notes: Mutant of 7F6; also called 7F6 + F106H; not shown: C-terminal Flag- and His-tags of E. coli constructs
[1]
  IC50: 0.22 nM

B3: ID-40V (VHH)
VHH: EVQLVESGGGLVQAGGSTRLTCLASGSISSINVIGWYRQAPGKQRELVAMIGRGEGANYGDFAKGRFTISRDNSKNTVYLQMNSLKPEDTAVYYCYADYEDHDSPHNGSWGQGTQVTVSS
notes: Mutant of 7F6; also called 7F6 + R102H, F106H; not shown: C-terminal Flag- and His-tags of E. coli constructs
[1]
  IC50: 0.21 nM

B4: ID-47V (VHH)
VHH: EVQLVESGGGLVQAGGSTRLTCLASGSISSINVIGWYRQAPGKQRELVAMIGRGEGANYGDFAKGRFTISRDNSKNTVYLQMNSLKPEDTAVYYCYADYEDRDSPINGSWGQGTQVTVSS
notes: Mutant of 7F6; also called 7F6 + F106I; not shown: C-terminal Flag- and His-tags of E. coli constructs
[1]
  IC50: 0.27 nM

B5: ID-49V (VHH)
VHH: EVQLVESGGGLVQAGGSTRLTCLASGSISSINVIGWYRQAPGKQRELVAMIGRGEGANYGDFAKGRFTISRDNSKNTVYLQMNSLKPEDTAVYYCYADYEDRDSPTNGSWGQGTQVTVSS
notes: Mutant of 7F6; also called 7F6 + F106T; not shown: C-terminal Flag- and His-tags of E. coli constructs
[1]
  IC50: 0.31 nM

B6: ID-50V (VHH)
VHH: EVQLVESGGGLVQAGGSTRLTCLASGSISSINVIGWYRQAPGKQRELVAMIGRGEGANYGDFAKGRFTISRDNSKNTVYLQMNSLKPEDTAVYYCYADYEDRDSPVNGSWGQGTQVTVSS
notes: Mutant of 7F6; also called 7F6 + F106V; not shown: C-terminal Flag- and His-tags of E. coli constructs
[1]
  IC50: 0.24 nM

B7: 5G9 (VHH)
VHH: EVQLVESGGGLVQAGGSTRLTCKASGSIFNINSINVMAWYRQAPGKQRELVAIIGKGGGTNYADFVKGRFTISRDAAKNTVNLQMNSLKPEDTAVYYCYADYEDRDSPFNASWGQGTQVTVSS
notes: also called VIL-5G9; 'Wild type' 5G9; not shown: C-terminal Flag and 6xHis tags from vector pMEK222
[2]
  IC50: 0.09 nM
[3]
  Potency in the TF-1 assay: 0.23 not printed (nM in the filing's other TF-1 tables)
[4]
  IC50: 0.804 nM
[5]
  IC50 of inhibition of IL-6-induced TF-1 cell proliferation: 0.9 nM
[6]
  IC50: 0.148 nM
[7]
  IC50: 0.16 nM
[8]
  Ratio Cyno IC50/human IC50 (title: human IC50 divided by cynomolgous IC50): 0.2

B8: ID-52V (VHH)
VHH: EVQLVESGGGLVQAGGSTRLTCKASGSIFNINSINVMAWYRQAPGKQRELVAIIGKGGGTNYADFVKGRFTISRDAAKNTVNLQMNSLKPEDTAVYYCYADYEDHDSPHNASWGQGTQVTVSS
notes: Mutant of 5G9; also called 5G9 + F109H, R105H; not shown: C-terminal Flag- and His-tags of E. coli constructs
[2]
  IC50: 0.24 nM

B9: ID-53V (VHH)
VHH: EVQLVESGGGLVQAGGSTRLTCKASGSIFNINSINVMAWYRQAPGKQRELVAIIGKGGGTNYADFVKGRFTISRDAAKNTVNLQMNSLKPEDTAVYYCYADYEDRDSPHNASWGQGTQVTVSS
notes: Mutant of 5G9; also called 5G9 + F109H; not shown: C-terminal Flag- and His-tags of E. coli constructs
[2]
  IC50: 0.3 nM
[3]
  Potency in the TF-1 assay: 17.5 not printed (nM in the filing's other TF-1 tables)

B10: ID-54V (VHH)
VHH: EVQLVESGGGLVQAGGSTRLTCKASGSIFNINSINVMAWYRQAPGKQRELVAIIGKGGGTNYADFVKGRFTISRDAAKNTVNLQMNSLKPEDTAVYYCYADYEDHDSPFNASWGQGTQVTVSS
notes: Mutant of 5G9; also called 5G9 + R105H; not shown: C-terminal Flag- and His-tags of E. coli constructs
[2]
  IC50: 0.15 nM
[3]
  Potency in the TF-1 assay: 0.31 not printed (nM in the filing's other TF-1 tables)

B11: ID-55V (VHH)
VHH: EVQLVESGGGLVQAGGSTRLTCHASGSIFNINSINVMAWYRQAPGKQRELVAIIGKGGGTNYADFVKGRFTISRDAAKNTVNLQMNSLKPEDTAVYYCYADYEDRDSPFNASWGQGTQVTVSS
notes: Mutant of 5G9; also called 5G9 + K23H; not shown: C-terminal Flag- and His-tags of E. coli constructs
[2]
  IC50: 0.11 nM

B12: ID-56V (VHH)
VHH: EVQLVESGGGLVQAGGSTRLTCKASGSISNINSINVMAWYRQAPGKQRELVAIIGKGGGTNYADFVKGRFTISRDAAKNTVNLQMNSLKPEDTAVYYCYADYEDRDSPFNASWGQGTQVTVSS
notes: Mutant of 5G9; also called 5G9 + F29S; not shown: C-terminal Flag- and His-tags of E. coli constructs
[2]
  IC50: 0.07 nM

B13: ID-59V (VHH)
VHH: EVQLVESGGGLVQAGGSTRLTCKASGSIFNINSINVMAWYRQAPGKQRELVAIIGKGGGTNDADFVKGRFTISRDAAKNTVNLQMNSLKPEDTAVYYCYADYEDRDSPFNASWGQGTQVTVSS
notes: Mutant of 5G9; also called 5G9 + Y62D; not shown: C-terminal Flag- and His-tags of E. coli constructs
[2]
  IC50: 0.11 nM

B14: ID-122V (VHH)
VHH: EVQLVESGGGLVQAGGSTRLTCKASGSISNINSINVMAWYRQAPGKGRELVAIIGKGGGTNYADFVKGRFTISRDAAKNTVNLQMNSLRPEDTAVYYCYADYEDHDSPHNASWGQGTQVTVSS
notes: E. coli-produced trans-selective 5G9 derivative; also called 5G9 + F29S, Q47G, K89R, R105H, F109H; not shown: C-terminal FLAG-6xHis
[9]
  M1 cellular assay EC50 (20 ng/ml IL-6R, 100 ng/ml IL-6): 3.96 nM
[10]
  EC50: 0.489 nM

B15: 4D3 (VHH)
VHH: EVQLVESGGGSVQAGESLTLSCVASISTFSQNAMGWFRQAAGKRRESVARISSSGNVGYTDAVKGRFTMSRDNAKKTVYLQMNSLKPEDTAVYYCNAYSMSGELAAPWGQGTQVTVSS
notes: Llama ICVD from library 46-3, produced in E. coli; also called VIL-4D3; not shown: C-terminal Flag and 6xHis tags from vector pMEK222
[4]
  IC50: 0.372 nM
[5]
  IC50 of inhibition of IL-6-induced TF-1 cell proliferation: 26 nM
[6]
  IC50: 0.691 nM
[7]
  IC50: 0.66 nM
[8]
  Ratio Cyno IC50/human IC50 (title: human IC50 divided by cynomolgous IC50): 1.9

B16: 3C12 (VHH)
VHH: EVQLVESGGGLAQLGGSLRLSCVASGNIFSSNTAGWFRQAPGKQREWVAGISIGGMPAYADSVKGRFTISRDNAKNTVYLQMNSLKPEDTAVYYCATGGTEYDYWGQGTQVTVSS
notes: Llama ICVD from library 37-3, produced in E. coli; also called VIL-3C12; not shown: C-terminal Flag and 6xHis tags from vector pMEK222
[4]
  IC50: 4.14 nM
[5]
  IC50 of inhibition of IL-6-induced TF-1 cell proliferation: 44.6 nM
[6]
  IC50: 3.53 nM
[7]
  IC50: 1.89 nM
[8]
  Ratio Cyno IC50/human IC50 (title: human IC50 divided by cynomolgous IC50): 0.9
